The values below come from publication PMC8172861, “Structural and phylogenetic analyses of resistance to next-generation aminoglycosides conferred by AAC(2′) enzymes” (Scientific Reports, 2021).

What all share (assay): purified protein
Format in all cases: biochemical, Providencia stuartii

Data set [1] concerns CN[C@@H]1[C@@H](O)[C@@H](O[C@@H]2[C@@H](O)[C@H](O[C@H]3OC(CNCCO)=CC[C@H]3N)[C@@H](N)C[C@H]2NC(=O)[C@@H](O)CCN)OC[C@]1(C)O. The settings on record: acetyl-CoA (S)-HABA tail hydrogen bonds with Glu149 and Asp176.
Data set [2] deals with NC[C@H]1O[C@H](O[C@H]2[C@H](O)[C@@H](O[C@H]3O[C@H](CO)[C@@H](O)[C@H](N)[C@H]3O)[C@H](N)C[C@@H]2N)[C@H](N)C[C@@H]1O. Particulars: acetyl-CoA aminoglycoside active site; acetylated at N-2′.
The subject of data set [3] is CCN[C@@H]1C[C@H](N)[C@@H](O[C@H]2OC(CN)=CC[C@H]2N)[C@H](O)[C@H]1O[C@H]1OC[C@](C)(O)[C@H](NC)[C@H]1O. Particulars: acetyl-CoA aminoglycoside active site; acetylated at N-2′.

As usually defined, the Km is the substrate concentration at which the rate is half of its maximum. By kcat is commonly meant the number of substrate molecules converted per active site and unit of time at saturation. Usually kcat/Km stands for the turnover number divided by the Michaelis constant. Consider AAC(2′)-Ia (Providencia stuartii), for which, in data set [1], the Km is 19.1 ± 2.5 µM, the kcat amounted to 1.42 ± 0.05 s⁻¹ and the kcat/Km is 74000 ± 12000 M⁻¹ s⁻¹. Moreover, in data set [2], the Km amounted to 14.5 ± 1.7 µM, the kcat came out at 5.04 ± 0.17 s⁻¹ and the kcat/Km is 348000 ± 51000 M⁻¹ s⁻¹. In data set [3], the Km was 19.9 ± 1.3 µM, the kcat was found to be 6.05 ± 0.13 s⁻¹ and the kcat/Km was determined as 304000 ± 26000 M⁻¹ s⁻¹.
